Residue numbers refer to the chain shown, from its start. In names and notes the source's numbering stands.

B1: Antibody No 6, lead clone of 4451H (HC N35G; LC L33G) (antibody, V domains shown)
VH: QVQLVQSGAEVKKPGASVKVSCKASGYDFTGYHMGWVRQAPGQGLEWMGEINPITSDKTFNQKFKSRVTMTRDTSISTAYMELSRLRSDDTAVYYCARRDYGTSLDYWGQGTTVTVSS
VL: DIQLTQSPSFLSASVGDRVTITCRASKSISKYGAWYQQKPGKAPKLLIYAGSTLHSGIPSRFRGSGSGTEFTLTISSLQPEDFATYYCQQHNEYPITFGQGTKLEIK
B2: Antibody No 17, lead clone of 4451H (HC N35G, T59Y; LC L33G) (antibody, V domains shown)
VH: B1 VH with T59Y
VL: B1 VL
B3: Antibody No 16, lead clone of 4451H (HC N35G, T59Y; LC S30K) (antibody, V domains shown)
VH: B1 VH with T59Y
VL: B1 VL with S30K, G33L
B4: Antibody No 3, lead clone of 4451H (HC N35G; LC L33G, T97I) (antibody, V domains shown)
VH: B1 VH
VL: B1 VL with T97I
B5: Antibody No 15 (4451HM15), lead clone of 4451H (HC N35G, T59Y; LC K27A) (antibody, V domains shown)
VH: B1 VH with T59Y
VL: B1 VL with K27A, G33L
B6: Antibody No 1, lead clone of 4451H (HC N35G; LC K27A, T97I) (antibody, V domains shown)
VH: B1 VH
VL: B1 VL with K27A, G33L, T97I
B7: Antibody No 12, lead clone of 4451H (HC T59Y; LC S30K) (antibody, V domains shown)
VH: B1 VH with G35N, T59Y
VL: B1 VL with S30K, G33L
B8: Antibody No 9, lead clone of 4451H (HC T59Y; LC S30K, T97I) (antibody, V domains shown)
VH: B1 VH with G35N, T59Y
VL: B1 VL with S30K, G33L, T97I
B9: Antibody No 10, lead clone of 4451H (HC T59Y; LC L33G, T97I) (antibody, V domains shown)
VH: B1 VH with G35N, T59Y
VL: B1 VL with T97I
B10: Antibody No 14, lead clone of 4451H (HC T59Y; LC T97I) (antibody, V domains shown)
VH: B1 VH with G35N, T59Y
VL: B1 VL with G33L, T97I
B11: Antibody No 11, lead clone of 4451H (HC T59Y; LC K27A) (antibody, V domains shown)
VH: B1 VH with G35N, T59Y
VL: B1 VL with K27A, G33L
B12: Antibody No 5, lead clone of 4451H (HC N35G; LC S30K) (antibody, V domains shown)
VH: B1 VH
VL: B1 VL with S30K, G33L
B13: Antibody No 13, lead clone of 4451H (HC T59Y; LC L33G) (antibody, V domains shown)
VH: B1 VH with G35N, T59Y
VL: B1 VL
B14: Antibody No 7, lead clone of 4451H (HC N35G; LC T97I) (antibody, V domains shown)
VH: B1 VH
VL: B1 VL with G33L, T97I
B15: Antibody No 2, lead clone of 4451H (HC N35G; LC S30K, T97I) (antibody, V domains shown)
VH: B1 VH
VL: B1 VL with S30K, G33L, T97I
B16: Antibody No 18, lead clone of 4451H (HC N35G, T59Y; LC T97I) (antibody, V domains shown)
VH: B1 VH with T59Y
VL: B1 VL with G33L, T97I
B17: Antibody No 8, lead clone of 4451H (HC T59Y; LC K27A, T97I) (antibody, V domains shown)
VH: B1 VH with G35N, T59Y
VL: B1 VL with K27A, G33L, T97I
B18: Antibody No 4, lead clone of 4451H (HC N35G; LC K27A) (antibody, V domains shown)
VH: B1 VH
VL: B1 VL with K27A, G33L
B19: VH4 + VL4 (humanized 4451) (antibody, V domains shown)
VH: B1 VH with G35N, R38K, M48I, V68A, R72V, T74R
VL: B1 VL with T22Y, G33L, K45R
notes: IgG expressed in HEK293
B20: VH2 + VL4 (humanized 4451) (antibody, V domains shown)
VH: B1 VH with G35N, M48I, R72V
VL: B1 VL with T22Y, G33L, K45R
notes: IgG expressed in HEK293
B21: VH2 + VL2 (humanized 4451) (antibody, V domains shown)
VH: B1 VH with G35N, M48I, R72V
VL: B1 VL with G33L, K45R, I58V
notes: IgG expressed in HEK293

The first test has as its target T1, Human CD24 (human, UniProt P25063 27-59, limits assumed).
T1 chain (looked up): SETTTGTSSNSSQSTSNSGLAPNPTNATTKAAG
Nature of the test: SPR, second 1:1 binding column set.
For the molecule B1, binding was characterised by a dissociation constant (Kd) of 3.86 nM; the koff (in general, the rate constant with which the complex falls apart) came out at 0.00763 s⁻¹; the kon (commonly the second-order rate constant of association) worked out at 1.98e+06 M⁻¹ s⁻¹.

Consider B2, for which binding was characterised by a dissociation constant (Kd) of 3.41 nM, the koff worked out at 0.00419 s⁻¹ and the kon turned out to be 1.23e+06 M⁻¹ s⁻¹.

For the molecule B3, the Kd (in general, the free concentration of one partner at which half of the binding sites on the other are occupied at equilibrium, for simple one-to-one binding) was 6.99 nM; the koff came to 0.00808 s⁻¹; the kon came to 1.16e+06 M⁻¹ s⁻¹.

Turning to B4, binding was put at a Kd of 4.6 nM, the koff was determined as 0.00766 s⁻¹ and the kon was determined as 1.66e+06 M⁻¹ s⁻¹.

In the case of B5, the Kd amounted to 3.98 nM, the koff amounted to 0.00509 s⁻¹ and the kon came out at 1.28e+06 M⁻¹ s⁻¹.

In a further test the target is T1, Human CD24. Kind of test: SPR affinity ranking, 1:1 binding, analyte conc. 19.71 nM.
Turning to B6, the Kd amounted to 10.5 nM, the koff is 0.0132 s⁻¹ and the kon was found to be 1.26e+06 M⁻¹ s⁻¹.

Molecule B1 returned a Kd of 5.11 nM, a koff of 0.00796 s⁻¹ and an on-rate constant (kon) of 1.56e+06 M⁻¹ s⁻¹.

B7: binding was characterised by a dissociation constant (Kd) of 11.1 nM, the koff came to 0.168 s⁻¹ and the kon is 1.52e+07 M⁻¹ s⁻¹.

In turn, B8 returned a Kd of 11.4 nM, a koff of 0.06 s⁻¹ and a kon of 5.27e+06 M⁻¹ s⁻¹.

B9 yielded a Kd of 8.7 nM, a koff of 0.0175 s⁻¹ and a kon of 2.01e+06 M⁻¹ s⁻¹.

With B10, the Kd stood at 8.3 nM, the koff turned out to be 0.0604 s⁻¹ and the kon came to 7.28e+06 M⁻¹ s⁻¹.

B11: the Kd was determined as 14.1 nM, the koff was 0.0171 s⁻¹ and the kon amounted to 1.21e+06 M⁻¹ s⁻¹.

For B2, binding was characterised by a dissociation constant (Kd) of 4.42 nM, the koff worked out at 0.0069 s⁻¹ and the kon was found to be 1.56e+06 M⁻¹ s⁻¹.

The molecule B3 came in with a Kd of 7.51 nM, a koff of 0.016 s⁻¹ and a kon of 2.13e+06 M⁻¹ s⁻¹.

With B4, the Kd was 7.09 nM, the koff stood at 0.00827 s⁻¹ and the kon came out at 1.17e+06 M⁻¹ s⁻¹.

As for B12, the Kd is 7.89 nM, the koff turned out to be 0.0345 s⁻¹ and the kon was 4.37e+06 M⁻¹ s⁻¹.

Molecule B13 registered a Kd of 9.68 nM, a koff of 0.0237 s⁻¹ and a kon of 2.45e+06 M⁻¹ s⁻¹.

Turning to B14, binding was characterised by a dissociation constant (Kd) of 16.9 nM, the koff was found to be 0.0141 s⁻¹ and the kon amounted to 836000 M⁻¹ s⁻¹.

B15 returned a Kd of 8.78 nM, a koff of 0.0249 s⁻¹ and a kon of 2.83e+06 M⁻¹ s⁻¹.

The molecule B16 gave a Kd of 8.83 nM, a koff of 0.015 s⁻¹ and a kon of 1.7e+06 M⁻¹ s⁻¹.

B17 displayed a Kd of 15.8 nM, a koff of 0.0196 s⁻¹ and a kon of 1.24e+06 M⁻¹ s⁻¹.

B18 had a Kd of 8.97 nM, a koff of 0.0107 s⁻¹ and a kon of 1.19e+06 M⁻¹ s⁻¹.

B5 showed a Kd of 7.05 nM, a koff of 0.00755 s⁻¹ and a kon of 1.07e+06 M⁻¹ s⁻¹.

Another test addresses T1, Human CD24. Kind of test: affinity ranking; antibody as ligand, Human CD24 as analyte.
With B19, the Kd came to 7.94 nM, the koff is 0.0122 s⁻¹ and the kon stood at 1.53e+06 M⁻¹ s⁻¹.

Turning to B20, the Kd is 19.7 nM, the koff was determined as 0.0229 s⁻¹ and the kon was 1.16e+06 M⁻¹ s⁻¹.

Turning to B21, the Kd worked out at 22 nM, the koff was found to be 0.0234 s⁻¹ and the kon was found to be 1.06e+06 M⁻¹ s⁻¹.

For another test, the target named is T2, human CD24 on cells (human, UniProt P25063 27-59).
T2 construct: whole, on cells; One molecule for all cell lines; the cell line is named under assay or readout; also called cell surface CD24; cell-based CD24
T2 chain (looked up): T1 chain (looked up)
Nature of the test: flow cytometry (GMFI), MCF-7 cells; EC50 table under the graphs.
As for B19, a half-maximal effect (EC50) was put at 0.39 µg/mL.

On to B21, for which the EC50 – broadly, the midpoint of the concentration-response curve – was found to be 0.75 µg/mL.

(Values after patent publication US20260265403A1 (TJ BIOPHARMA SHANGHAI, published 2026).)
